Biological target: light chain of the anti-IL8 IgG1 mAb of the CHO DP-12 cell line
Assay: SEC + native MS

light chain of the anti-IL8 IgG1 mAb of the CHO DP-12 cell line (antibody)
stoichiometry N: 2

Reference: paper doi:10.1101/2020.11.04.368480
